Experimental data published in US6762284 (ONYX PHARMACEUTICALS, dated 2004).
Like-named read-outs stand apart in the source and are kept apart here.

Experiments:
Test in all cases: yeast two-hybrid
[1] = molecular target: T1, p85 SH3 domain (AA 6-117) (human, UniProt P04386 1-147; P27986 6-117)
[2] = molecular target: T2, p85 Bcr homology domain (AA 118-340) (human, UniProt P04386 1-147; P27986 118-340)
[3] = molecular target: T3, p85 C-terminal SH2 domain (AA 620-727) (human, UniProt P04386 1-147; P27986 620-724)
[4] = molecular target: p85 SH2 domains and inter SH2 domain (AA 263-727) (human, UniProt P04386 1-147; P27986 263-724)
[5] = molecular target: T4, p85 full length (AA 6-727) (human, UniProt P04386 1-147; P27986 6-724)
T4 construct: also called GAL4-p85

[6] = molecular target: T5, p85 N-terminal SH2 and inter SH2 domain (AA 263-620) (human, UniProt P04386 1-147; P27986 263-620)
T5 construct: Two-hybrid bait fusion

[7] = molecular target: T1, p85 SH3 domain (AA 6-117); remark: listed apart in the source
[8] = molecular target: T2, p85 Bcr homology domain (AA 118-340); remark: listed apart in the source
[9] = molecular target: T3, p85 C-terminal SH2 domain (AA 620-727); remark: listed apart in the source

Measured: binding result

B1: PIKAP AA 517-589 (other, not shown: large carriers)
chain: DRLIALKAVTNFGVPVEVFDSEEAEIFQKKLDETTRLLRELQEAQNERLSTRPPGNMICLLGPSSEKCILLNK
notes: The text speaks of the last 74 amino acids, while 517-589 counts 73 residues; also called last 74 amino acids of the c-terminal end of PIKAP
no binding: [1] | [2] | [3]

B2: PIKAP AA 277-360 (other, not shown: large carriers)
chain: EDSGDAEAHAFKSPSKENKKKDKDMLEDKFKSNNLEREQEQLDRIVKESGGKLTRRLVNSQCEFERRKPDGTTTLGLLHPVDPI
not listed: [7] | [8] | [9]
no binding: all other assays above

B3: PIKAP AA 361-516 (other, not shown: large carriers)
chain: VGEPGYCLVRLGMTTGRLQSGVNTLQGFKEDKRNKVTPVLYLNYGPYSSYAPHYDSTFANISKDDSDLIYSTYGEDSDLPSDFSIHEFLATCQDYPYVMADSLLDVLTKGGHSRTLQEMEMSLPEDEGHTRTLDTGKEMEQITEVEPPGRLDSSTQ
not listed: [7] | [8] | [9]
no binding: all other assays above

B4: PIKAP AA 277-589 (other, not shown: large carriers)
chain: EDSGDAEAHAFKSPSKENKKKDKDMLEDKFKSNNLEREQEQLDRIVKESGGKLTRRLVNSQCEFERRKPDGTTTLGLLHPVDPIVGEPGYCLVRLGMTTGRLQSGVNTLQGFKEDKRNKVTPVLYLNYGPYSSYAPHYDSTFANISKDDSDLIYSTYGEDSDLPSDFSIHEFLATCQDYPYVMADSLLDVLTKGGHSRTLQEMEMSLPEDEGHTRTLDTGKEMEQITEVEPPGRLDSSTQDRLIALKAVTNFGVPVEVFDSEEAEIFQKKLDETTRLLRELQEAQNERLSTRPPGNMICLLGPSSEKCILLNK
notes: Two-hybrid prey fusion expressed in yeast YGH1; also called original isolate from two hybrid screening; PI3K Associated Protein AA 277-589
no binding: [7] | [8] | [9]
